Source: article PMC4807272, “Structural Determinants of Oligomerization of the Aquaporin-4 Channel*” (The Journal of Biological Chemistry, 2016)
Residue numbers refer to the chain shown, from its start. In names and notes the source's numbering stands.

What was measured:
[1] = molecular target: AQP4 I43A, C-terminal GFP fusion (UniProt P55087); assay: native gel or EMSA; BN-PAGE (8% bis-tris gel, pH 7.0, on ice) of whole-cell lysates of transfected HEK293 cells in 1% Triton X-100 BN lysis buffer, then immunoblot (anti-AQP4 or anti-GFP) and densitometry; self-association: tetramer, dimer, monomer bands
[2] = molecular target: AQP4 TM1 compound mutant (I43A/I47A/L50A/L51A/I57A), C-terminal GFP fusion (UniProt P55087); assay: as above
[3] = molecular target: wild-type human AQP1 (human) (UniProt P29972); assay: as above
[4] = molecular target: AQP4 I43A, C-terminal GFP fusion (UniProt P55087); assay: BN-PAGE and Western blotting, densitometry; details: Triton X-100-solubilized protein from HEK293 cells; 3 experimental repeats; read off a plot
Target sequence in this assay (P55087 whole entry, stated change not applied, the tested form may be a part): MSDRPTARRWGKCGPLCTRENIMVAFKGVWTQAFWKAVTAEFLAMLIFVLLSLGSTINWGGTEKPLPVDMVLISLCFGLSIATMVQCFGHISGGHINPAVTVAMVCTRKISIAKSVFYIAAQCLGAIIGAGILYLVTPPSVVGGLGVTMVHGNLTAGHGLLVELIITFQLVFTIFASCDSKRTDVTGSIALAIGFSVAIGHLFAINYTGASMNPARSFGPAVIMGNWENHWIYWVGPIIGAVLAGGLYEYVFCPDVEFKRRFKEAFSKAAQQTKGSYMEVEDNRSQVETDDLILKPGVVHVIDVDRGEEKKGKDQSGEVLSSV

[5] = molecular target: AQP4 TM1 compound mutant (I43A/I47A/L50A/L51A/I57A), C-terminal GFP fusion (UniProt P55087); assay: BN-PAGE and Western blotting, densitometry; details: Triton X-100-solubilized protein from HEK293 cells; 3 experimental repeats; read off a plot
Target sequence in this assay (P55087 whole entry I47A/L50A/L51A/I57A, stated change not applied, the tested form may be a part): as the sequence (P55087 whole entry, stated change not applied, the tested form may be a part) above, with I47A, L50A, L51A, I57A counted along it

[6] = molecular target: the molecule itself; assay: native gel or EMSA; BN-PAGE (8% bis-tris gel, pH 7.0, on ice) of whole-cell lysates of transfected HEK293 cells in 1% Triton X-100 BN lysis buffer, then immunoblot (anti-AQP4 or anti-GFP) and densitometry; self-association: tetramer, dimer, monomer bands

AQP4 I43A, C-terminal GFP fusion (from UniProt P55087 1-323) (natural protein)
stoichiometry N [1]: 4

AQP4 TM1 compound mutant (I43A/I47A/L50A/L51A/I57A), C-terminal GFP fusion (from UniProt P55087 1-323) (natural protein)
stoichiometry N [2]: 4

wild-type human AQP1 (from UniProt P29972 1-269) (natural protein)
stoichiometry N [3]: 4

wild-type human AQP4, C-terminal GFP fusion (from UniProt P55087) I43A
other: % tetrameric protein [4]: 100%

wild-type human AQP4, C-terminal GFP fusion (from UniProt P55087) I43A; I47A; L50A; L51A; I57A
other: % tetrameric protein [5]: 100%

B1: wild-type AQP10 (natural protein, human, UniProt Q96PS8 1-301, looked up)
chain: MVFTQAPAEIMGHLRIRSLLARQCLAEFLGVFVLMLLTQGAVAQAVTSGETKGNFFTMFLAGSLAVTIAIYVGGNVSGAHLNPAFSLAMCIVGRLPWVKLPIYILVQLLSAFCASGATYVLYHDALQNYTGGNLTVTGPKETASIFATYPAPYLSLNNGFLDQVLGTGMLIVGLLAILDRRNKGVPAGLEPVVVGMLILALGLSMGANCGIPLNPARDLGPRLFTYVAGWGPEVFSAGNGWWWVPVVAPLVGATVGTATYQLLVALHHPEGPEPAQDLVSAQHKASELETPASAQMLECKL
notes: aquaporin-10 (AQP10), human; The construct and its tag are not described; a GFP tag is surmised; source: HEK293, transfected, Triton X-100-extracted protein
stoichiometry N [6]: 4

B2: AQP3 P181S/Y182K/N183R (natural protein, human, UniProt Q92482 1-292, looked up)
chain: MGRQKELVSRCGEMLHIRYRLLRQALAECLGTLILVMFGCGSVAQVVLSRGTHGGFLTINLAFGFAVTLGILIAGQVSGAHLNPAVTFAMCFLAREPWIKLPIYTLAQTLGAFLGAGIVFGLYYDAIWHFADNQLFVSGPNGTAGIFATYPSGHLDMINGFFDQFIGTASLIVCVLAIVDSKRNPVPRGLEAFTVGLVVLVIGTSMGFNSGYAVNPARDFGPRLFTALAGWGSAVFTTGQHWWWVPIVSPLLGSIAGVFVYQLMIGCHLEQPPPSNEEENVKLAHVKHKEQI
notes: aquaporin-3 (AQP3), human; DPYNN changed to DSKRN; The construct and its tag are not described; a GFP tag is surmised; also called AQP3 DSKRN mutant; source: HEK293, transfected, extracted with Triton X-100
stoichiometry N [6]: 2

B3: AQP3 P181E/Y182K/N183R (natural protein, human, UniProt Q92482 1-292, looked up)
chain: B2 chain with S181E
notes: aquaporin-3 (AQP3), human; DPYNN changed to DEKRN; The construct and its tag are not described; a GFP tag is surmised; also called AQP3 DEKRN mutant; source: HEK293, transfected, extracted with Triton X-100
stoichiometry N [6]: 2

B4: wild-type AQP9 (natural protein, human, UniProt O43315 1-295, looked up)
chain: MQPEGAEKGKSFKQRLVLKSSLAKETLSEFLGTFILIVLGCGCVAQAILSRGRFGGVITINVGFSMAVAMAIYVAGGVSGGHINPAVSLAMCLFGRMKWFKLPFYVGAQFLGAFVGAATVFGIYYDGLMSFAGGKLLIVGENATAHIFATYPAPYLSLANAFADQVVATMILLIIVFAIFDSRNLGAPRGLEPIAIGLLIIVIASSLGLNSGCAMNPARDLSPRLFTALAGWGFEVFRAGNNFWWIPVVGPLVGAVIGGLIYVLVIEIHHPEPDSVFKTEQSEDKPEKYELSVIM
notes: aquaporin-9 (AQP9), human; The construct and its tag are not described; a GFP tag is surmised; source: HEK293, transfected, Triton X-100-extracted protein
stoichiometry N [6]: 4
